Test results taken from the nanobody polyreactivity screen of Harvey et al. (2022).

Assay: yeast display, Sf9 membrane polyspecificity reagent, FACS + sequencing; frameworks hold sequencing errors
Procedure, shortened: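 Galactose induction of a Saccharomyces cerevisiae BJ5465 synthetic nanobody display library ran 36–48 hours. The cells were then stained for 1 hour at 4 °C with 10% biotinylated, detergent-solubilized Sf9 membrane reagent, pulled down on streptavidin microbeads and FACS-sorted into low and high (top ~1%) gates on expression and reagent-binding fluorescence. Labels for polyreactivity follow the gate of origin.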
With “QAQLQESGGSLVQAGGRLRLSCAASGYISVGSVMGWYRQAPSKERELVASIDQVANTNYADSVKGRFTISRDNAKNNVYLQMNSLKPEDTAVYYCATETTYILNYWGQVTQVTVSS” the “polyreactivity (PSR sort gate)” value was “low polyreactivity”.
In the case of “QAQLVESGGGLVQAGGSLRLICAASGSTFGVNAMGWYTQAPGKERELVAIITSTTYADSVKGRFTISRDNAKNTVYLQMNSLKPEDTAVYYCAKVQERVTKGRFYLLEYYWGQGTQVTVSS”, the “polyreactivity (PSR sort gate)” value is reported as “low polyreactivity”.
With “QCQLVVSGGGLVQAGGSLRISCSASGSTFGVYSMGWYRQAPGKERELFATINSGGSTNYADSVKGRFTISRDNAKNTVYLQMNSLKPEDTAVYYCASGPFWQDFYVYEYDYWGQGTQVTVSS” the “polyreactivity (PSR sort gate)” value was “low polyreactivity”.
For “QDHLVESGGCLVQAGGSLRLSCSASGRIFRYYAMGWYRHAPGKERELVAAIRNGGSTYYADSVKGRFTISRDNAKNTVYLQMNSLKPEDTAVYYCAAGYNYVSHRCGDWGQGSQVTVSS”, the “polyreactivity (PSR sort gate)” value was “high polyreactivity”.
For “QDHLVESGGGLVHAGGRLRLSCAASVRIFTAYAMGWYRQAPGTERELVPAISSGDSTYSADSVKGRFTISRDNAKNSVYLQMNSLKPVVTAVYSCATGVYPDFEYVSWGQGTQVTGSS”, the “polyreactivity (PSR sort gate)” value was “low polyreactivity”.
For “QDHLVESGGGLVQAGCSLRLTCAASGSIFIPNAMGWYRQAPGKERYLVAAIRSGGSSYYADSVKGRFTISRDNAKNTVYLQMNSLKPEDTAVYYCAADTYTYYYYLARYYYWGQGTQVTVSS”, the “polyreactivity (PSR sort gate)” value was “low polyreactivity”.
In the case of “QDHLVESGGGLVQAGGSLRLSCAASGRIFFGYAMGWYRQATGKERELVATISYNDTSTYYADSVKGRFTISRDNAKNTVYLQMNCLKPEDTAVNYCSKSLGAPASDVYWGQGTQVTVSS”, the “polyreactivity (PSR sort gate)” value is reported as “low polyreactivity”.
For “QDLLVESAGGLVQAGGSLRLSCAASGRNFPYKAMGWYRPAPGKERELVAAISSGGSTNYADSVKGRFTTSRDNAKNTVYLQMNSLKPEDTAVYYCAVGYSYYPSDEFDYWGQGTQVTVSS”, the “polyreactivity (PSR sort gate)” value was “low polyreactivity”.
In the case of “QDPLVESGGGLVQAGGSLSLSCAASGRNIPVYAMGWYSQAPGKERELVATISYSGSSTYYADSVKGRFTNSRDNAKNTVYLEMYSLKPEDTAVYYWNADAFGPPGVQYYNWGQGTKVTVSS”, the “polyreactivity (PSR sort gate)” value is reported as “low polyreactivity”.
With “QDQHGESGGGLVQAGGSLRLSCAASGFIFWSYTMGWYRQAPGKERELVAVITGSGSTYYADSVKGRFTISRDNAKNTVYFQMNSLKPEDTALYYCATEVHVTAWTFEYEYWGQGTQVTVSS” the “polyreactivity (PSR sort gate)” value was “low polyreactivity”.
For “QDQHVESAGGLVQAAGSLRLSCAASGSTFWYYVMGWSRQAPGQVRELVAAISTRGDSTYYADSVKGRFTISRDNANNSVYLQMYSLKPEDTAVYYCAKSRQSSGRVRFDYWGQGTQVTVSS”, the “polyreactivity (PSR sort gate)” value was “low polyreactivity”.
In the case of “QDQHVESAGGLVQAGGSLRLSCAATGFTFYYNPMRWYRQAPGKERELFASITRSGGPTYYADSVKGRFTISRDIAKHTVYLQMNSLKPEDTAVYYCARRYPGGYYWGHGTQVTVSS”, the “polyreactivity (PSR sort gate)” value is reported as “high polyreactivity”.
For “QDQHVESGGGLDQAGGSLRLSCAASGRIFSYNTMGWYRQAPGQERELVAASSSSGGSTYYADSVKGRFTISRDNAKNTVYLQMNSLKPEDTAVYYCNAVGRFSTRREYWGQGTQVTVSS”, the “polyreactivity (PSR sort gate)” value was “high polyreactivity”.
In the case of “QDQHVESGGGLVHAGGSLRLSCAASGRIFKVYAMGWYRQPPGKERQLVASIRWNTGSTYYADSVKGRFTISRDNAKNTVYLQMNSLKPEDTAVYYCNSRGYYQGRYGYWGQGTQVTVSS”, the “polyreactivity (PSR sort gate)” value is reported as “high polyreactivity”.
In the case of “QDQHVESGGGLVQAGCSLRLSCAASGRTFTYNAMGWYRQAPGKERELVASISSRGGSTYYADSVKGRFTISRDNAKNTVYLQMNSLKPEDTAVYYCAARWRYQLSGSRLSYGKYDYWGQGTQVTVSS”, the “polyreactivity (PSR sort gate)” value is reported as “high polyreactivity”.
In the case of “QDQHVESGGGLVQAGGSLRLSCAASGHTFRLYTMGWYRQAPGKEREFVAAIRRRTGSTYYADSVKGRFTISRDNAQNTVYLQRNSMKAEVTAVYYCNAVGDARYNYRGQGTQVTVSS”, the “polyreactivity (PSR sort gate)” value is reported as “high polyreactivity”.
For “QDQHVESGGGLVQAGGSLRLSCAASGLIFYYNMGWNRQAPRKERELVAAISSSGGSTSYADSVKGRFTISRDNAKNTVYLQMNSLKPEDTAVYYCAADSYPAYLGFVGFDYWGQGTQVTVSS”, the “polyreactivity (PSR sort gate)” value was “low polyreactivity”.
For “QDQHVESGGGLVQAGGSLRLSCAASGRTFGNYAMGWYRQAPGKERELVADITRRGGSTSYADSVKGRFTISRDNAKNTVYLQMNSLKPEDTAVYYCNKAADGSSHYDYWGQGTQVTVSS”, the “polyreactivity (PSR sort gate)” value was “low polyreactivity”.
For “QDQHVESGGGLVQAGGSLRLSCAASGRTFVFYAMGWYRQAPGKERELLAVIRVIGGSTKYADSVKGRFTISRDNAKNTVYLQMNSLKPVDTAVYYCAADGVVVVAAYMYYWGQGTQVTVSS”, the “polyreactivity (PSR sort gate)” value was “low polyreactivity”.
With “QDQHVESGGGLVQAGGSLRLSCAASGRTFYRNAMGWYRQAPGKEREFVAVISVSCGSTYYADSVKGRFTISRDNAKNTVYLQMNSLKPEDTAVYYCAKRGPVRKTAYDYCGQGTQVTVSS” the “polyreactivity (PSR sort gate)” value was “low polyreactivity”.
In the case of “QDQHVESGGGLVQAGGSLRLSCAASGSTFYIYARGWYRQAPGKERELVARISGSGGSTYYADSVKGRFTISRDNAKNTVYLQMNSLKPEDTAVYYCAAEDIYKYYQYYAFPYYRYDYWGQGTQVTVSS”, the “polyreactivity (PSR sort gate)” value is reported as “low polyreactivity”.
With “QDQHVESGGGLVQAGGSLRLSCAASGSTYRDNAMGWSRQAPGKERELVAAISVSGASTYYADSVKGRFTISRDNAKNTVYLQMNSLKPEDTAVYDCAKSLYQALSLSFFIFGYWGQGTQVTVSS” the “polyreactivity (PSR sort gate)” value was “low polyreactivity”.
In the case of “QDQHVESGGGLVQAGGSLRLSCAASGYILRCNTMGWSRKAPGKERELVAAISSRGGITNYADSVKGRFTFSRDNAKNTVYLQMNSRKPEDTAVYYCATYWQYRYDYWGQGTQVTVSS”, the “polyreactivity (PSR sort gate)” value is reported as “low polyreactivity”.
In the case of “QDQHVESGGGLVQAGGSLRLSCSATGRIFTSYVMGWYRQPQGKERQLVAAITRSGGSTYYADSVKVRFTISRDTAKNTVYLQMKSLIPVDTAVYYCNALTRLQIGGEGGGYWGKGTQVTVSS”, the “polyreactivity (PSR sort gate)” value is reported as “high polyreactivity”.
For “QDQHVESGGGLVQAGGSLRLSSAASGFTFKGNAMGWYRQGPGKVMELVATITQSAGSTYYADSVKGRFSISRDNAKNTVYLQMNSLKPEDTGVYFCNADPITLYYYSWYNYWGQGTQVTVSS”, the “polyreactivity (PSR sort gate)” value was “low polyreactivity”.
In the case of “QDQIVESGGGLVQAGGSLRLSCAASGIIFWSYAMAWYRQAPGKERELVAAINTSGDSSYYADSVKGRFTISRDNAKNTVYLQMNSLKAEDTAVYYCAAKSSTRGDYWGQGTQVTVSS”, the “polyreactivity (PSR sort gate)” value is reported as “low polyreactivity”.
For “QDQIVESGGGYDQAGGSLRLTCAASGRIFRGNDMGSYRQAPGKERELVASISGTGGRTYYADSVKGRFTISRDNAKNTVYLQMNSLKPEDPAVYYCAVRTSLWGYYYWGHGTQVTVSS”, the “polyreactivity (PSR sort gate)” value was “high polyreactivity”.
For “QDQIVESGVGLVQAGGTLRLSCAASGFTFRRYVMGWYRQAPGKERELVAAISQSGGSTYYADSVKGRFTISRDNAKNTVYLQMKSLKPEDTAVYYCAATGAFWYPYDYWGQGTQVTVSS”, the “polyreactivity (PSR sort gate)” value was “high polyreactivity”.
For “QDQLEESGGGLVQAGGSLRLSCAASGFTFGNNAMGWYRQAPGKERELDAAISKRGSSTYYADSVKGRFTISRDNAKNTVYLLMNSLKPDDTAVYYCAAQTPYYLLYDTGDYLGQGTQVTVSS”, the “polyreactivity (PSR sort gate)” value was “high polyreactivity”.
For “QDQLEESGGGLVQAGGSLRLSCAASVRTFRDNAMGWSRQATGKQRQLVAAITQSGASTFYADSVKGRFTISRDNAKNSVYLQMNSLKADDTAVYYCAALRRQGRYVYGYWGQGTQVTVSS”, the “polyreactivity (PSR sort gate)” value was “high polyreactivity”.
In the case of “QDQLEESGGGLVQAGGSLRLSFAASGSTFYGYARGWYRPAPGKERELVAAISVNGGSTYYADSVKGRFTISRDNAKNTVYLQMNSLKPDETAVYYCAAGSGWRFDYWGQGTQVTVSS”, the “polyreactivity (PSR sort gate)” value is reported as “low polyreactivity”.
In the case of “QDQLGESGGGIVQAGGSLRLSCASSGINFLDKAMGWYRPAQGKETELVAAYADSVKGRFTISRDNAKNTVYLQMNSLSAEDTAVYYCNAGWIRYYGFSIVSYDYWGQGTQVTVSS”, the “polyreactivity (PSR sort gate)” value is reported as “low polyreactivity”.
For “QDQLGESGGGLVQAGGSLRLSCAASGRTFNGYAMGWYRQAPGKVREFVAAITSNGARTYYADSVKGRFTISRDNAMNSVYLQMNSLKPEDTAVFYCAKRFARRSQRYDYWGQGTQVTVSS”, the “polyreactivity (PSR sort gate)” value was “high polyreactivity”.
With “QDQLLESGGGLVQAGGSLRLSCAASGFTFYRYAMGWYRQAPGKERELVASISKSCGSTYYADSVKGRFTISRDNAKNTVYLQMNSLKPEDTAVYYCAADVDYPYGYWGQGTQVTVSS” the “polyreactivity (PSR sort gate)” value was “low polyreactivity”.
With “QDQLQESGGGLEQARGSLRLSCAASGYISTFSSEMGWYRQAPGKELELVASIAPCCTTSYADSVKGRCTISRDNAKNTVYLQMNSLKPEDTSVYYCAVDYTVPASFGFRGQGTQVTVSS” the “polyreactivity (PSR sort gate)” value was “high polyreactivity”.
With “QDQLVDSGGGLLQAGGSLRLSCAASGFTFWQYAMGWYRQAPGKERELVAAISGSGSSTYYADSEKGRFTISRDNAKNTVYLQMISLQPEYTAVYYCATAISRYGRFYYWGQGTQVTLSS” the “polyreactivity (PSR sort gate)” value was “high polyreactivity”.
For “QDQLVDSGGGLVQAGGSLRLSCAASGRIFRGNAMGWYRQAPGKERELVAAISNSGGRTYYADSVKGRFTISRDNAKNTVYLQMNSLKPDDTAVSYCAAKAPVIFWDTRIVPGYSGYYYWGQGTQVTVSS”, the “polyreactivity (PSR sort gate)” value was “high polyreactivity”.
With “QDQLVDSGGGLVQAGGSLRLSCAASGRTFSPNTMGWYRQAPGKEREFVAAITASGDSTYYADSVKGRFTISRDNEKNTVYLQMNSLKPEDTAVYYCATDSNWYWGFNYWGQGTQVTVSS” the “polyreactivity (PSR sort gate)” value was “low polyreactivity”.
With “QDQLVDSGGGLVQAGGSLRLSCAATGRSFRRYFMGWYIPAPGKERELVAAISYSGATTYYADSVKGRFTISRDYAKNNVYLQMNSLKKEDTAVYYFAATAPGDRYYWGQGTQVTVSS” the “polyreactivity (PSR sort gate)” value was “high polyreactivity”.
For “QDQLVDSGGGLVQAGGSLRLSCGASGSTFRKYAMGWYRQAPGQEREFVAAITWSTGTTYYADSVKGRFTISRDNAKNTVYLQMNSLKREDTAVYYCAADSQPPHDLYESIEHESWGLGTQVTVSS”, the “polyreactivity (PSR sort gate)” value was “low polyreactivity”.
In the case of “QDQLVEAGGGLVQAGGSLRLSCAASGFIFSRNAMGWYRQAPGKEGELVAAISSTGGITYYADSVKGRFSISRDNAKNTVYLQLTSLKPEDTAVYFCAAGFYGYARHTWYNYWGQGTQVTVSS”, the “polyreactivity (PSR sort gate)” value is reported as “high polyreactivity”.
In the case of “QDQLVESAGGLVQAGGSLRLSCAASGFTFINNDMGWYRQAPGKERELVAAISDSDGTTYYADSVKGRFTISLDHAKNTVYLQMNSLKPEDTAGYYCAADVVPTWEDEYWRQGTQVTVSS”, the “polyreactivity (PSR sort gate)” value is reported as “low polyreactivity”.
In the case of “QDQLVESAGGLVQAGGSLRLSCAASGSTSQSNAMGWYREAPGKDRELVAAISWSGTSTYYADSVKGRFTISRDNAKNTVYLQMNRLKPEDTAGYYCAADYIFEYDYWGQGTQVTVSS”, the “polyreactivity (PSR sort gate)” value is reported as “low polyreactivity”.
